Tests used:
human CLDN4 = biological target: T1, human CLDN4 (human, UniProt O14493 1-209); experiment: flow cytometry on Ba/F3 cells forced to express human CLDN4
T1 construct: also called hCLDN4
T1 sequence: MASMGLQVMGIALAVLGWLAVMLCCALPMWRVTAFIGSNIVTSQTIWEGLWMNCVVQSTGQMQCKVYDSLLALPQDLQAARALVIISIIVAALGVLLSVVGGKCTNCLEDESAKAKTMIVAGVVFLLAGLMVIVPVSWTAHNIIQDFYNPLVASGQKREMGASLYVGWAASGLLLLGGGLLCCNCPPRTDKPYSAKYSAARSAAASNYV

human CLDN9 = biological target: T2, human CLDN9 (human, UniProt O95484 1-217); experiment: flow cytometry on Ba/F3 cells forced to express human CLDN9
T2 construct: also called hCLDN9
T2 sequence: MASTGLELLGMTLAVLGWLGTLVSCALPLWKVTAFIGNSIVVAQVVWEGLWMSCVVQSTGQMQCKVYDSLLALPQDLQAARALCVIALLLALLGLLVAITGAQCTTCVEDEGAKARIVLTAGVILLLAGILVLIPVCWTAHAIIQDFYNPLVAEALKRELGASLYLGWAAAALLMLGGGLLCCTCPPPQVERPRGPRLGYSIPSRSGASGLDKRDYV

B1: AE1-16 (antibody, V domains shown)
VH: EVQLQQSGPELVKPGASVKISCKASGYSFTGYFMNWVKQSHGKSLEWIGRINPYNGDTFYNQKFKGKATLTVDKSSNTAHMELRSLTSEDSAVYYCARVLFLDFDDPYLMDYWGQGTSVTVSS
VL: ENVLTQSPAIMSATLGEKVTMSCRATSNVKYMYWYQQKSGASPKLWIYYTSNLASGVPARFSGSGSGTSYSLTISSVEAADAATYYCQQFTSSPSTFGAGTKLELK
notes: also called anti-human CLDN6 monoclonal antibody AE1-16
Q: Does B1 bind (human CLDN4)?
A: Result: binds

Q: Does B1 bind (human CLDN9)?
A: Result: binds

B2: AE49-11 (antibody, IgG2b, V domains shown)
VH: EVQLQQSGPELVKPGASVKISCKASGYSFTGYFMNWVKQSHGKSLEWIGRINPYNGDTFYNQKFKGKATLTVDKSSSTAHMELRSLTSEDSAVYYCARVLFLDFDDPYLMDYWGQGTSVTVSS
VL: ENVLTQSPAIMSATLGEKVTMSCRATSNVKYMYWYQQKSGASPKLWIYYTSNLASGVPARFSGSGSGTSYSLTISSVEAADAATYYCQQFTSSPSTFGAGTKLELK
notes: also called AE49-11 antibody; original IgG2b antibody
Q: Which results are given for B2?
A: binding result (human CLDN4): binds; binding result (human CLDN9): binds

B3: AB3-1 (antibody, V domains shown)
VH: EVQLQQSGPELVKPGGSMKISCKASGYSFTGYTMNWVKQSHGKNLEWIGLINPYNGGISYNQKFKDKATLTMDKSSSTAYMELLSLTSEDSAIYFCARDYRYEGFDYWGQGTLVTVSA
VL: QIVLTQSPAIMSASLGERVTMTCTASSVVISTYLHWYQQKPGSSPKLWIYSTSNLASGVPVRFSGSGSGTSYSLTISSMEAEDAATYYCHQYHRSPWTFGGGTKLEIK
notes: also called anti-human CLDN6 monoclonal antibody AB3-1
Q: Does B3 bind (human CLDN9)?
A: Result: binds

From patent publication US20110059469A1 (UNIVERSITY OF TOKYO, published 2011)
